Laboratory results reported in article PMC12065857 (Nature Communications, 2025).
No end group written: not given here.

Biological target: T1, paLptD, LptD from Pseudomonas aeruginosa (as the chain in paLptDEHis) (Pseudomonas aeruginosa, UniProt Q9I5U2 34-924)
T1 sequence: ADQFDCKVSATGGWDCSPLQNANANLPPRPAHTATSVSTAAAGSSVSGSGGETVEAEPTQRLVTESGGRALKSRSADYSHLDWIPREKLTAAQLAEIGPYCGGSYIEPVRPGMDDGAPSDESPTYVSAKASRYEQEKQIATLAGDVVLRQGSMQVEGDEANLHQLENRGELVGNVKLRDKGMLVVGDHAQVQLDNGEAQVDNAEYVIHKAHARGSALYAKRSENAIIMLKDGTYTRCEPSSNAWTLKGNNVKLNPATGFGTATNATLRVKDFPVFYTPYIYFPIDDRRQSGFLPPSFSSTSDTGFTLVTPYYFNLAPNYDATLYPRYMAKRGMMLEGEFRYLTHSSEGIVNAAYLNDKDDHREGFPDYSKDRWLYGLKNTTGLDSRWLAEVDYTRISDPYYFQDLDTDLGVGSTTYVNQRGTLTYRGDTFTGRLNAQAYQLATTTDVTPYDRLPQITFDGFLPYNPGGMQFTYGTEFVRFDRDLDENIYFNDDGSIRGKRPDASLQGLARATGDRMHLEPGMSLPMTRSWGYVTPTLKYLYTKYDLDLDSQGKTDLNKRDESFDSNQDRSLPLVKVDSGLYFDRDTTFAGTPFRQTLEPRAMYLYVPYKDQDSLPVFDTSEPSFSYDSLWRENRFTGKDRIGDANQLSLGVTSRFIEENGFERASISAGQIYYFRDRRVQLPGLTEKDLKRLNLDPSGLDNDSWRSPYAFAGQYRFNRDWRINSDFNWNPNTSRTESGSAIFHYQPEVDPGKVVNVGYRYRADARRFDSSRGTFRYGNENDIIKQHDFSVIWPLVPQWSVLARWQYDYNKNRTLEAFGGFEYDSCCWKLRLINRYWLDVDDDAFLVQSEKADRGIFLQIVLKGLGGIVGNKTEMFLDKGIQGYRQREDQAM
Assay: crystal structure

CGLKGPLYFPPADKNAPPPTKPVETQTQSTVPDKNDRATGDGPSQVNY (natural protein, also: three acyl chains (R1, R2, R3) at the N-terminus) [LptM (formerly YifL), endogenous Escherichia coli lipoprotein]
binding result: binds
